Data reported in patent publication US9097721B2, “Compositions comprising engineered phosphothreonine affinity reagents, methods of making, and methods of use” (The Board of Trustees of the University of Illinois, priority 2012, dated 2015).
Where “and” joins values, the source holds several entries; their conditions need not be identical. Identical values can stand only once.

Tests used:
[1] = Fluorescence-based thermal shift (FTS) assay, melting temperature; assay type: physicochemical; settings: mid-point of melting curve
Protocol: The FTS assay was performed on a MxPro-Mx3005P instrument (Stratagene) following the protocol described by Giuliani et al (Giuliani et al. (2008) Biochemistry 47, 13974-84). It is a real-time assay using the SYBR® Green experiment setting with dissociation curve. The default FRROX filter set was used with an excitation wavelength of 492 nm and emission wavelength of 610 nm. FHA1 domains diluted with PBS to 2× final concentration (i.e. 2 μM and 8 μM) were mixed with 10×SYPRO® Orange protein gel stain (Invitrogen; 5000× concentration in DMSO) to give a final dye concentration of 10×. Then, to the protein wells only, 10 μL of the dye+protein mixture was added along with 10 μL of 1×PBS buffer. In other wells, 10 μL of either the pT peptide or its non-phosphorylated form (diluted to 2× final concentration with PBS, i.e. 100 μM and 500 μM) was added to 10 μL of dye+protein mixture. The final reaction volume was 20 μL with final concentrations of 1 μM or 4 μM of FHA1 domains, 50 μM or 250 μM of pT and non-phosphorylated peptides and 5× final concentration of the SYPRO® Orange. The assay was performed in duplicate in 96 well white PCR plates (BIO-Rad) covered with optically clear Microseal® ‘B’ Film (Bio-Rad) and heated from 25° C. to 95° C. and the melting curve was obtained with fluorescence (R) values plotted on the Y-axis and increasing temperature (° C.) on the X-axis. The mid-point of the curve gives the melting temperature (Tm), which shifts to a higher temperature in the presence of the pT peptide.
To evaluate the thermal stability of the D2 variant, phage particles displaying the D2 variant were heated at various temperatures (30° C., 37° C., 50° C., 60° C., 70° C., 80° C., and 95° C.) prior to incubation with the cognate pT peptide (Rad9-pT) and the non-phosphorylated form of the same peptide (Rad9-T). […] (FIG. 8). The D2 variant (purified six-his tagged protein) was mixed with SYPRO orange dye with or without the Rad9-pT-containing peptide and heated from 25° C. to 95° C. in a real-time PCR experiment known as the Fluorescence-based thermal shift (FTS) assay^36. In this assay, initially, the fluorescence of SYPRO orange dye is quenched in the aqueous environment of a folded protein, but as the protein starts to unfold upon heating, the dye interacts with the hydrophobic core of the protein and its fluorescence increases. Therefore, an increase in fluorescence of the dye is directly proportional to protein unfolding, until a temperature (referred to as Tm here) is reached at which the dye fluorescence decreases due to aggregation and precipitation of the protein. The melting temperature (Tm) of the D2 variant was determined by fluorescence-based thermal shift (FTS) assay to be approximately 5° C. lower than the Tm of the WT FHA1 domain. To improve the thermal stability of the D2 variant, affinity selection was carried out by heating the phage library displaying D2 variants at 50° C. prior to incubation with the pT peptide ligand to favor the isolation of variants that remained folded and functional above 50° C.
The Tm values of FHA1 variants were determined by FTS assay (Giuliani et al. (2008) Biochemistry 47, 13974-84). A representative Tm curve for the G2 variant at 1 μM concentration is shown (solid squares), alone and in the presence of the pT peptide (FIG. 11). […] The Tm values of the thermally stable variants (along with WT and D2 variant) at 1 μM and 4 μM concentration, along with the Tm shift in the presence of two different concentrations (50 μM and 250 μM) of the pT peptide, are listed in Table S3.
The Tm (temperature at which 50% of the protein is unfolded) of the protein domain variants was determined by a fluorescence-based thermal shift assay (Giuliani et al. (2008) Biochemistry 47, 13974-84). The proteins were mixed with SYPRO orange dye, and heated from 25° C. to 95° C. on a real-time thermocycler. […]

[2] = biological target: T1, pT peptide (Rad 9-pT: SLEVpTEADATFYAKK) (Saccharomyces cerevisiae, UniProt P14737); test: Isothermal titration calorimetry (ITC); assay type: binding, yeast; settings: in solution by ITC; FHA1 domain 35 μM in cell; listed as WT FHA1 domain
T1 construct: host or cells: chemical synthesis
Protocol: A fixed amount (10 μL) of the pT peptide (Rad 9-pT: SLEVpTEADATFYAKK (SEQ ID NO:9); 500 μM) was injected from the syringe into the sample cell containing the FHA1 domain (35 μM). […] Each measurement was repeated three times.
The affinity of the G2 variant and the WT FHA1 domain to the pT peptide (SLEVpTEADATFYAKK) (SEQ ID NO:9) was determined by ITC (FIG. 12). The sample cell contained the purified FHA1 domains (35 μM) and the injection syringe was filled with the pT peptide (350 μM). […] The FHA1 domains bound to the pT peptide with a stoichiometry of 1:1, and the ITC graph was fitted by the single site binding model.

Kd [2]: ~1 µM and 1 µM
B1: WT: N-terminal FHA1 domain of S. cerevisiae Rad53 protein kinase, residues 1-170 (SEQ ID NO:7) (protein, listed as Saccharomyces cerevisiae)
chain: MENITQPTQQSTQATQRFLIEKFSQEQIGENIVCRVICTTGQIPIRDLSADISQVLKEKRSIKKVWTFGRNPACDYHLGNISRLSNKHFQILLGEDGNLLLNDISTNGTWLNGQKVEKNSNQLLSQGDEITVGVGVESDILSLVIFINDKFKQCLEQNKVDRIRSNLKNT
Tm (° C.) ([1]; protein concentration 1 μM): 66.7 °C
Tm (° C.) ([1]; protein concentration 4 μM): 66.4 °C
